Publication PMC6938032 (2020)

Experiments:
[1] = target: Neutrophil elastase (Homo sapiens) (UniProt P08246); assay: progress curve inhibition analysis; details: cited from earlier work
Neutrophil elastase [2] = target: T1, Neutrophil elastase (Homo sapiens, UniProt P08246); assay: progress curve inhibition analysis
T1 chain: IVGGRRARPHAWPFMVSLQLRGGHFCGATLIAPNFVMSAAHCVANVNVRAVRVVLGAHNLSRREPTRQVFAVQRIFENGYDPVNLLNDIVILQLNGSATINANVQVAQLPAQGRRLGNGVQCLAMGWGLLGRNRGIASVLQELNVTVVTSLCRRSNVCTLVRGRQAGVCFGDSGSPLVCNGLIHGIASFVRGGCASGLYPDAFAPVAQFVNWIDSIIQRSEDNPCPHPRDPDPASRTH

Neutrophil elastase [3] = target: T1, Neutrophil elastase; assay: SPR

EapH1 (from UniProt A0A0H3KEC5)
Ki [1]: 0.021 nM

B1: EapH2 (protein)
chain: AEKDKLPATQKAKEMQNVPYTIAVDGIMAFNQSYLNLPKDSQLSYLDLGNKVKALLYDERGVTPEKIRNAKSAVYTITWKDGSKKEVDLKKDSYTANLFDSNSIKQIDINVKTK
Ki (Neutrophil elastase [2]): 2.11 nM
Kd (Neutrophil elastase [3]): 2.16 nM
